The source of these data is patent publication EP4541822A2 (Tsinghua University, dated 2025).

B1: recombinant protein (SH3)5-DNB (other)
chain: MKHHHHHHHENLYFQGHMDLNMPAYVKFNYMAEREDELSLIKGTKVIVMEKSSDGWWRGSYNGQVGWFPSNYVTEEGDSPLASGAGGSEGGGSEGGTSGATDLNMPAYVKFNYMAEREDELSLIKGTKVIVMEKSSDGWWRGSYNGQVGWFPSNYVTEEGDSPLASGAGGSEGGGSEGGTSGATHMDLNMPAYVKFNYMAEREDELSLIKGTKVIVMEKSSDGWWRGSYNGQVGWFPSNYVTEEGDSPLASGAGGSEGGGSEGGTSGATDLNMPAYVKFNYMAEREDELSLIKGTKVIVMEKSSDGWWRGSYNGQVGWFPSNYVTEEGDSPLASGAGGSEGGGSEGGTSGATDLNMPAYVKFNYMAEREDELSLIKGTKVIVMEKSSDGWWRGSYNGQVGWFPSNYVTEEGDSPLGGSGGSGGSGGSMEVQLLESGGGLVQPGGSLRLSCAASGTFDKINNMGWYRQAPGKQRDLVAQITPGGITDYADSVKGRFTISRDNSKNTLYLQMNSLRPEDTAVYYCNAEILKRAYIDVYVNYWGQGTLVTVSS
B2: recombinant protein (SIM)6-CNB (other)
chain: MKHHHHHHHENLYFQGAMSSKVDVIDLTIESSSDEEEDPPAKRGGSGGSGGSGGSKVDVIDLTIESSSDEEEDPPAKRGGSGGSGGSGGSKVDVIDLTIESSSDEEEDPPAKRGAMKGGSGGSGGSGGSMSSKVDVIDLTIESSSDEEEDPPAKRGGSVGSGGSGGSKVDVIDLTIESSSDEEEDPPAKRGGSGGSGGRGGSKVDVIDLTIESSSDEEEDPPAKRGAMRCWGGSGGSGGSGGSMGEVQLMESGGGLVQAGGSLRLSCAASGRTFNNYAMGWFRRAPKGEREFVAAITRSGVRSGVSAIYGDSVKDRFTISRDNAKNTLYLQMNSLKPEDTAVYTCAASAIGSGALRRFEYDYSGQGTQVTVSS
notes: The entry also holds a 7xHis tag and TEV site; Labelled with Alexa594 for imaging; also called (SIM)6-CNB (Red)
B3: recombinant protein (PRMH)5-CNB (other)
chain: MKHHHHHHHENLYFQGHMKGGSWGGSKKTPPPVPPRTTSKGGSGGSGGSGGSKKTPPPVPPRTTSKGGSGGSGGSGGSKKTPPPVPPRTTSKGGSGGSGGSGGSKKTPPPVPPRTTSKGGSGGSGGSGGSKKTPPPVPPRTTSKGGSGSKNLYFQGGSGGSGGSGGSMEVQLMESGGGLVQAGGSLRLSCAASGRTFNNYAMGWFRRAPKGEREFVAAITRSGVRSGVSAIYGDSVKDRFTISRDNAKNTLYLQMNSLKPEDTAVYTCAASAIGSGALRRFEYDYSGQGTQVTVSS
notes: The entry also holds a 7xHis tag and TEV site; Labelled with Alexa594; also called (PRMH)5-CNB (Red)
B4: recombinant protein (SIM)3-CNB (other)
chain: MKHHHHHHHENLYFQGAMKVDVIDLTIESSSDEEEDPPAKRGGSGGSGGSGGSMMKVDVIDLTIESSSDEEEDPPAKRGGSGGSGGSGGSMMKVDVIDLTIESSSDEEEDPPAKRGGSGGSGGSGGSMGEVQLMESGGGLVQAGGSLRLSCAASGRTFNNYAMGWFRRAPKGEREFVAAITRSGVRSGVSAIYGDSVKDRFTISRDNAKNTLYLQMNSLKPEDTAVYTCAASAIGSGALRRFEYDYSGQGTQVTVSS
notes: The entry also holds a 7xHis tag and TEV site; Red-labelled for imaging; also called (SIM)3-CNB (Red)
B5: recombinant protein (SIM)6-R4L (other)
chain: MKHHHHHHHENLYFQGAMSSKVDVIDLTIESSSDEEEDPPAKRGGSGGSGGSGGSKVDVIDLTIESSSDEEEDPPAKRGGSGGSGGSGGSKVDVIDLTIESSSDEEEDPPAKRGAMKGGSGGSGGSGGSMSSKVDVIDLTIESSSDEEEDPPAKRGGSVGSGGSGGSKVDVIDLTIESSSDEEEDPPAKRGGSGGSGGRGGSKVDVIDLTIESSSDEEEDPPAKRGAMRCWGGSGGSGGSGGSMGMCYRKCRGGRRWCYQKCGGSGGSGGSGGS
notes: also called (SIM)6-R4L (Red)

One assay concerns the target death receptor 5 (DR5) (human, UniProt O14763 56-440). The experiment in a line: cell-based or functional assay.
Assay [1] addresses T1, CXC motif chemokine receptor 4 (CXCR4) (human, UniProt P61073 1-352).
T1 construct: whole, on cells; Endogenous receptor on human tumour cell lines; also called chemokine receptor CXCR4
The assay can be described thus: fluorescence imaging of SJSA-1 cells with anti-CXCR4 immunostaining (Figs. 3A, 3B).

In assay [2] the target is T2, recombinant protein (SUM)5-DNB.
T2 construct: The entry also holds a 7xHis tag and TEV site; Labelled with Alexa647 for imaging; also called (SUM)5-DNB (Green)
The assay can be described thus: fluorescence imaging of SJSA-1 cells, 100 nM (Figs. 3A, 3B).

Assay [3] has as its target B1. The experiment in a line: confocal imaging of SJSA-1 cells, 100 nM each (Fig. 9A).
Assay [4] addresses T3, recombinant protein (SUM)3-DNB.
T3 construct: The entry also holds a 7xHis tag and TEV site; Green-labelled for imaging; unlabelled in the apoptosis assays; also called (SUM)3-DNB (Green)
The experiment in a line: fluorescence imaging of SJSA-1 cells (Figs. 5A, 5B).

The target in assay [5] is T1, CXC motif chemokine receptor 4 (CXCR4). The experiment in a line: fluorescence imaging of SJSA-1 cells with anti-CXCR4 immunostaining (Figs. 5A, 5B).
In assay [6] the target is T4, multivalent domain (SUM)5.
T4 construct: Labelled with Alexa647 for imaging; also called (SUM)5 (Green)
T4 sequence (chain, as listed by the source): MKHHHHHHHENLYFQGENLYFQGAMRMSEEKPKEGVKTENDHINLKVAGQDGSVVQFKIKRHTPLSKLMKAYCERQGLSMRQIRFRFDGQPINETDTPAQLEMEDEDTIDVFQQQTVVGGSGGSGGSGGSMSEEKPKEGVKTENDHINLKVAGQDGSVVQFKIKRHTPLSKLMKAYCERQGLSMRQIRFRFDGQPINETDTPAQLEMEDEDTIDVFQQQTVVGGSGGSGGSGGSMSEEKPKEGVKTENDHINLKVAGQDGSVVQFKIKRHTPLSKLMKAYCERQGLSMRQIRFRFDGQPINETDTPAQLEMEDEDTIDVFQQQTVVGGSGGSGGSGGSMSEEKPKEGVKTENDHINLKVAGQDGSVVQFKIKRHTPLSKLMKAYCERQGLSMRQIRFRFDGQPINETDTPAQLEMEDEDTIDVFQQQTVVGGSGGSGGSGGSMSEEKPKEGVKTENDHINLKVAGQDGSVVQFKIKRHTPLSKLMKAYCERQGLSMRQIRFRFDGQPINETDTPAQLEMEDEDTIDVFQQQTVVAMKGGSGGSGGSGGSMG
The assay can be described thus: confocal imaging of SJSA-1 cells, (SIM)6-R4L (Red) plus (SUM)5 (Green), 100 nM each (Fig. 2A).

Assay [7] addresses T1, CXC motif chemokine receptor 4 (CXCR4). The experiment in a line: confocal imaging of SJSA-1 cells; membrane puncta with the ligand fusions, none with the multivalent domains alone.

T1 sequence (P61073 whole entry): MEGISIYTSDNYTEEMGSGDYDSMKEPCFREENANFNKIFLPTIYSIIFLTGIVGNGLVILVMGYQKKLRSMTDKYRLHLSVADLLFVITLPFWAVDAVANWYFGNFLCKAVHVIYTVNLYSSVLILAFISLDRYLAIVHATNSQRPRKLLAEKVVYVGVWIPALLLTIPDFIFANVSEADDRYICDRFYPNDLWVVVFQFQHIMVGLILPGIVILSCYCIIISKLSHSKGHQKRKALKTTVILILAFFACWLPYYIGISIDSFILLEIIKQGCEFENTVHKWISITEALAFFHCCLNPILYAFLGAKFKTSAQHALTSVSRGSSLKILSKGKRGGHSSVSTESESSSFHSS

As for B1, in the assay with death receptor 5 (DR5), the “apoptotic ratio of SJSA-1 cells, Annexin V-FITC/PI flow cytometry, 4 h; (SH3)5-DNB (Green) added together with (PRMH)5-CNB (Red) at 100 nM” value was approximately 58.4%.
Turning to B2, the binding result in assay [1] and in assay [2] was “binds” in each case.
For B3, the binding result in assay [3] was “binds”.
B4: the binding result in assay [4] and in assay [5] was “binds” each time.
With B5, the binding result in assay [6] and in assay [7] was “binds” each time.
